In patent publication US10500249B2, “Compositions and methods for preventing or treating diseases, conditions, or processes characterized by aberrant fibroblast proliferation and extracellular matrix deposition” (MOERAE MATRIX, INC., priority 2014, dated 2019):

Assays:
Assay in all cases: Kinase Profiling Assay
Conditions in all cases: 100 μM
CK1γ3 (h) = target: T1, CK1γ3 (h) (Homo sapiens, UniProt Q9Y6M4); type: biochemical
T1 construct: purchased Millipore
Outline: (§1)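 Measured twice per kinase, activity in presence of MK2 inhibitory peptide was calculated against a 100% activity control after radiometric phosphorylation of a cationic substrate, anionic filter capture and scintillation counting; one of 266 human kinases profiled for specificity.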

JNK1α1 (h) = JNK1α1 (h) (Homo sapiens, UniProt P45983); type: biochemical
Sequence of JNK1α1 (h) (P45983 1-384 isoform P45983-2): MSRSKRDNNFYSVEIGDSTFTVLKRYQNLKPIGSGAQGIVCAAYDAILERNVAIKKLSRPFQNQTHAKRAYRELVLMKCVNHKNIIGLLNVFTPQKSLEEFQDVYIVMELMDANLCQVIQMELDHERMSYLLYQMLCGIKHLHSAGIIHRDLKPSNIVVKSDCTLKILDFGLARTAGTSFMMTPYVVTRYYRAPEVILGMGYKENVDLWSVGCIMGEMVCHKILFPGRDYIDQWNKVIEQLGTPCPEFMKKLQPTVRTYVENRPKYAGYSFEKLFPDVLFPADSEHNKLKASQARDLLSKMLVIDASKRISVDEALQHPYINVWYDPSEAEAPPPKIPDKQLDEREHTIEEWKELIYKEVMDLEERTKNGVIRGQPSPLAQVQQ
Outline: as §1

Lck (h) = Lck (h) (Homo sapiens, UniProt P06239); type: biochemical
Sequence of Lck (h) (P06239 whole entry): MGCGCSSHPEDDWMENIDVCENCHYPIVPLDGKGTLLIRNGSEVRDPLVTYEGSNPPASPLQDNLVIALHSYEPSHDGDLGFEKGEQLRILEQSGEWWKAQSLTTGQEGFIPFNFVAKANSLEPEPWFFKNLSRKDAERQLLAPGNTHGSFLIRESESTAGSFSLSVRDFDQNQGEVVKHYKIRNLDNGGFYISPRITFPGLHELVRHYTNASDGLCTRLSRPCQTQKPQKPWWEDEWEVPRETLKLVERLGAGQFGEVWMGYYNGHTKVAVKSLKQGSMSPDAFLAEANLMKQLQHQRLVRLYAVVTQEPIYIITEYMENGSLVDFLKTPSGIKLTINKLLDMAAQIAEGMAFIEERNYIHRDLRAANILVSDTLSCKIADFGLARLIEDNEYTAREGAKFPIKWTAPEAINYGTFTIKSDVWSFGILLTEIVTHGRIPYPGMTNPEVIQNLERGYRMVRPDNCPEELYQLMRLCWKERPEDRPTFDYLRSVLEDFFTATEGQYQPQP
Outline: as §1

PAK3 (h) = target: T2, PAK3 (h) (Homo sapiens, UniProt O75914); type: biochemical
T2 construct: purchased Millipore
T2 sequence (O75914 whole entry): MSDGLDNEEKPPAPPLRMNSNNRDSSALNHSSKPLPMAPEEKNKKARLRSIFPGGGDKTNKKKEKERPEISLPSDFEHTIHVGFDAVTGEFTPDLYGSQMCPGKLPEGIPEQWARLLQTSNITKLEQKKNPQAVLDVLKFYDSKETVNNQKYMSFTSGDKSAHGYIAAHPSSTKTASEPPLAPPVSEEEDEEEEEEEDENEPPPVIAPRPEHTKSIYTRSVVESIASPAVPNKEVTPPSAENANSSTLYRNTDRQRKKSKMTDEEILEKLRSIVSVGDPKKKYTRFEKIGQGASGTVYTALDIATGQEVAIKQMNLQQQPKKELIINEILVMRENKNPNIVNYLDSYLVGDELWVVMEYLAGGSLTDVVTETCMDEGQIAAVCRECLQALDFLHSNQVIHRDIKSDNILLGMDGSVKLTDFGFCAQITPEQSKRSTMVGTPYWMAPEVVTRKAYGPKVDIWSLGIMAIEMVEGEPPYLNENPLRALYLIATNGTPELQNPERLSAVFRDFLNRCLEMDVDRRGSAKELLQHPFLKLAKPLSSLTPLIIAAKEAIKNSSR
Outline: as §1

PKD2 (h) = target: T3, PKD2 (h) (Homo sapiens, UniProt Q9BZL6); type: biochemical
T3 sequence (Q9BZL6 1-878): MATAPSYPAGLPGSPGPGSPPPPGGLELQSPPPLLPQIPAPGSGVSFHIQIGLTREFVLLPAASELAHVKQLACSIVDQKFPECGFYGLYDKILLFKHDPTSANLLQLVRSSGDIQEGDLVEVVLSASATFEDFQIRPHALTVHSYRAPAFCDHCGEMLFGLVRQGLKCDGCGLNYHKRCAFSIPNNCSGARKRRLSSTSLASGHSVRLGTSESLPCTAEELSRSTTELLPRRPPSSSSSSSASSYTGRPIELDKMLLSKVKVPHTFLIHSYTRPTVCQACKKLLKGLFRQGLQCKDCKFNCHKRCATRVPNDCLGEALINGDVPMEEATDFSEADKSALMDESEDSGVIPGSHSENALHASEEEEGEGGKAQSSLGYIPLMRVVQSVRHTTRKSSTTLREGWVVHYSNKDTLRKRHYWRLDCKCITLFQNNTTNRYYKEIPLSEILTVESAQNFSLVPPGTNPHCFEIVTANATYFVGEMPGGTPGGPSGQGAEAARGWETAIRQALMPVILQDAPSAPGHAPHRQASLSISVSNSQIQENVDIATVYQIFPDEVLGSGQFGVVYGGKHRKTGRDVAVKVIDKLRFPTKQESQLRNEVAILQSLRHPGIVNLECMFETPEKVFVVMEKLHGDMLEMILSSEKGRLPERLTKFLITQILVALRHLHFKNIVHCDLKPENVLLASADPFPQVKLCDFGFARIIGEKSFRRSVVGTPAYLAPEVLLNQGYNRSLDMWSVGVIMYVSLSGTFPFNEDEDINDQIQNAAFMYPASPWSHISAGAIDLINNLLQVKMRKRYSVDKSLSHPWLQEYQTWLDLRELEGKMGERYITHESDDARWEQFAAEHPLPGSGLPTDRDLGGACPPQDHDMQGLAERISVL
Outline: as §1

CaMKI (h) = type: biochemical, human
Experimental: (§2) Every kinase activity measurement was conducted in duplicate.
(§3) Specifically, in these assays, a positively charged substrate is phosphorylated with a radiolabeled phosphate group from an ATP if the kinase is not inhibited by an inhibitor peptide. The positively charged substrate then is attracted to a negatively charged filter membrane, quantified with a scintillation counter, and compared to a 100% activity control.
(§4) In addition to determining the IC50 of the compound, the specificity of MK2 inhibitory peptides was assessed by examining activities of all 266 human kinases available for testing in the Millipore kinase profiling service (Table 1).

MLCK (h) = type: biochemical, human
Experimental: as §2, §3, §4

SGK (h) = type: biochemical, human
Experimental: as §2, §3, §4

JAK3 (h) = target: T4, JAK3 (h) (Homo sapiens, UniProt P52333); type: biochemical
T4 construct: purchased Millipore
T4 sequence (P52333 1-1124): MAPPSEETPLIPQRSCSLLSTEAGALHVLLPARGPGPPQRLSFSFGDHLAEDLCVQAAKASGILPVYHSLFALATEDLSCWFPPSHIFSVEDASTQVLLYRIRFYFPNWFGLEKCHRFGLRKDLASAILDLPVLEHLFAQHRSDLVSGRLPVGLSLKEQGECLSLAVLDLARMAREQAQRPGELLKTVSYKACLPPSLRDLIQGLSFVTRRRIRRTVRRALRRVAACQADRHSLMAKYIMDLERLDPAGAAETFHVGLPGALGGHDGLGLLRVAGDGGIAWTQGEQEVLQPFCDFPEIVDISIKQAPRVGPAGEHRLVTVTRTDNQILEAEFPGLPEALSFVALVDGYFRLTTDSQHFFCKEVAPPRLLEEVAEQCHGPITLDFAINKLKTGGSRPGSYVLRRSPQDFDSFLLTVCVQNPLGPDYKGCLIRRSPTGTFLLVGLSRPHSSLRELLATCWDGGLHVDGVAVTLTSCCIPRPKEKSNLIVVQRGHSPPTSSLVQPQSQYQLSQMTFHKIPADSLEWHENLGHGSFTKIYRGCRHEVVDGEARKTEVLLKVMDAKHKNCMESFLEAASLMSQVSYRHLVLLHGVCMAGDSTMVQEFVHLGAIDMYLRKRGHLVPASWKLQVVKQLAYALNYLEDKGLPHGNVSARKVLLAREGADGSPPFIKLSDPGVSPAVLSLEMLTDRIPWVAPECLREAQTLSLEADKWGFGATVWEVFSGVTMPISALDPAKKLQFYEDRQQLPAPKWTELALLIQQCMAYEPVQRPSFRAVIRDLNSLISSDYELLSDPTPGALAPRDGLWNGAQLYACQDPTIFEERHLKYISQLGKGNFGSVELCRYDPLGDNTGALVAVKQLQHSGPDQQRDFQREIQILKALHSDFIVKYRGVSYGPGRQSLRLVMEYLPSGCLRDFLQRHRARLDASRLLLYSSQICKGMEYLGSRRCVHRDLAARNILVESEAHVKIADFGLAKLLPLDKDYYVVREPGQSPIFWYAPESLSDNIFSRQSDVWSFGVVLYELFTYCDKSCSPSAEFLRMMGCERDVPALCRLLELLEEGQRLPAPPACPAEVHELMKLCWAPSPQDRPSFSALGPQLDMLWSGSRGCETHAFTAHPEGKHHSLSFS
Outline: as §1

PAR-1Bα (h) = target: T5, PAR-1Bα (h) (Homo sapiens, UniProt Q7KZI7); type: biochemical
T5 construct: purchased Millipore
T5 sequence (Q7KZI7 1-725 isoform Q7KZI7-4): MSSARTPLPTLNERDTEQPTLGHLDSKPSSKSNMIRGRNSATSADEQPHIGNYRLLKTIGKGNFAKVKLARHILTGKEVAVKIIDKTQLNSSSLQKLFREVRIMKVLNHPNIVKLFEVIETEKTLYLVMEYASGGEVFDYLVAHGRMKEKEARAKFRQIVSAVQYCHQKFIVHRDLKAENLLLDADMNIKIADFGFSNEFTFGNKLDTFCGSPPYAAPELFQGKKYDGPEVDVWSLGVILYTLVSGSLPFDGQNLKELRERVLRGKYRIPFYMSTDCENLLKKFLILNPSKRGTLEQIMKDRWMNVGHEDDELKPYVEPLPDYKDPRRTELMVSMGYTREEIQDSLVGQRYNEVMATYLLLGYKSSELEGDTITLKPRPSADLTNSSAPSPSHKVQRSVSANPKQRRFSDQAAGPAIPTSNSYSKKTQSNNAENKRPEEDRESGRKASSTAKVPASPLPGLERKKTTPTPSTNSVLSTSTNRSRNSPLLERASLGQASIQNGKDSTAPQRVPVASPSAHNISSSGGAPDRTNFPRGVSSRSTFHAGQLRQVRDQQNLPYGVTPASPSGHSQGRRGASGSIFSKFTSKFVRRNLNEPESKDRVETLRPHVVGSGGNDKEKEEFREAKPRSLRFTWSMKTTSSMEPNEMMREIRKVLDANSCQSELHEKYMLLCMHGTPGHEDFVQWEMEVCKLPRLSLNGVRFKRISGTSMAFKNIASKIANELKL
Outline: as §1

PKA (h) = target: T6, PKA (h) (Homo sapiens, UniProt P17612); type: biochemical
T6 construct: purchased Millipore
Outline: as §1

Snk (h) = Snk (h) (Homo sapiens, UniProt Q9NYY3); type: biochemical
Sequence of Snk (h) (Q9NYY3 whole entry): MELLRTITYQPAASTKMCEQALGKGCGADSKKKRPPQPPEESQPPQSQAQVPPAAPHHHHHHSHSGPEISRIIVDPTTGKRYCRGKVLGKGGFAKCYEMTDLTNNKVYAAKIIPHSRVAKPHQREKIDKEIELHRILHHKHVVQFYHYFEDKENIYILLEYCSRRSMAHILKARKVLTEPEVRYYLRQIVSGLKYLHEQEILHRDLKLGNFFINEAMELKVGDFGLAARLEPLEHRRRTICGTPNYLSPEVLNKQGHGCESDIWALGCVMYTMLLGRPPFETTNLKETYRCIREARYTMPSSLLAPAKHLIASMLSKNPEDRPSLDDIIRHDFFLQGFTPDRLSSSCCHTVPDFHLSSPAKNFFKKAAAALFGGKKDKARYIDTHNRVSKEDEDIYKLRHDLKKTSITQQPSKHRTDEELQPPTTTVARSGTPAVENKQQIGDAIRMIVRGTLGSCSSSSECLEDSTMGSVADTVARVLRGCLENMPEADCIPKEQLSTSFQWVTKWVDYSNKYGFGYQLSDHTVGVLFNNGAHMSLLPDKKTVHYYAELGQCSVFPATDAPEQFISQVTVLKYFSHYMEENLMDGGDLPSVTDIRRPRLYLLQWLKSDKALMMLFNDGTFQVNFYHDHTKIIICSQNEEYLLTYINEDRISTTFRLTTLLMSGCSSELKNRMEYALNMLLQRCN
Outline: as §1

MAPK1 (h) = MAPK1 (h) (Homo sapiens, UniProt P27361); type: biochemical
Sequence of MAPK1 (h) (P27361 whole entry): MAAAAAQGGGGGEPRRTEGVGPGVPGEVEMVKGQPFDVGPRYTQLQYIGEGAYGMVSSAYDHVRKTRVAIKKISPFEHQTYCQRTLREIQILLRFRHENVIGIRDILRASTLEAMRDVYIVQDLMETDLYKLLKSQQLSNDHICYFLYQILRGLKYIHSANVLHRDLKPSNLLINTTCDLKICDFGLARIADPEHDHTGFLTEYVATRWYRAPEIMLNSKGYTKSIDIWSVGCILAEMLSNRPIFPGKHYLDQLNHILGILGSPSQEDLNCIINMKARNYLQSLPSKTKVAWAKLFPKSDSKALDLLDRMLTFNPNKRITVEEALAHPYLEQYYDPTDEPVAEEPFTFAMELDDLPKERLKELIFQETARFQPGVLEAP
Outline: as §1

Tie2(R849W) (h) = Tie2(R849W) (h) (Homo sapiens, UniProt Q02763, R849W); type: biochemical
Sequence of Tie2(R849W) (h) (Q02763 23-1124 R849W): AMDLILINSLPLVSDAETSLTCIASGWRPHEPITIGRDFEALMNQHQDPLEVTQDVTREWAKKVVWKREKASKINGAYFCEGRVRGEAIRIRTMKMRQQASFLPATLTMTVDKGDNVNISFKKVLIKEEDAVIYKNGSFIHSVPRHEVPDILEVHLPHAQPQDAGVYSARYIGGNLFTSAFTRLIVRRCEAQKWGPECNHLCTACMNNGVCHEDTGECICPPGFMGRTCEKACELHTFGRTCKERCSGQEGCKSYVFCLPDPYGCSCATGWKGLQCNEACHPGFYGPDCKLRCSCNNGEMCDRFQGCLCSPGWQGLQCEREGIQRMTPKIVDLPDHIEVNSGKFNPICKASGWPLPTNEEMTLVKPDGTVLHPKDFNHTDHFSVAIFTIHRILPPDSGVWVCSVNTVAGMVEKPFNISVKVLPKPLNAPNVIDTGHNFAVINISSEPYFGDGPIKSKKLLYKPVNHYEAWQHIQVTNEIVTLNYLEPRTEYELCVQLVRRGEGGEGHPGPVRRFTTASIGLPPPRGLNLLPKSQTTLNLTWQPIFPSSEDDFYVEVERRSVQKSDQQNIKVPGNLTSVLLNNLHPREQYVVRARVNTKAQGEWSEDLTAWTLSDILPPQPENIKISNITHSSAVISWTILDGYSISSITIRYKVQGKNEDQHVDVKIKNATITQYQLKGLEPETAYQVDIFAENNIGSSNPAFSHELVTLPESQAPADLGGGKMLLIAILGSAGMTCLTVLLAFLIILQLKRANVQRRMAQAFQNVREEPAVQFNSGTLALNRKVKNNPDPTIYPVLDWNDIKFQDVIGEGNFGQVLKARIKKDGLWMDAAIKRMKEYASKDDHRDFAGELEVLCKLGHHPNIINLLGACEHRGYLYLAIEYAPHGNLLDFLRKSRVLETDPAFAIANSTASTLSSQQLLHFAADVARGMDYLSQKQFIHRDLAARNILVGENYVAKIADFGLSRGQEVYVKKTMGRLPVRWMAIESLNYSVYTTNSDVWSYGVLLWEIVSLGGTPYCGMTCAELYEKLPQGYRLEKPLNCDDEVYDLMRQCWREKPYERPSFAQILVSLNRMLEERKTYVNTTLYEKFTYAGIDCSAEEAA
Outline: as §1

T1 sequence (Q9Y6M4 whole entry): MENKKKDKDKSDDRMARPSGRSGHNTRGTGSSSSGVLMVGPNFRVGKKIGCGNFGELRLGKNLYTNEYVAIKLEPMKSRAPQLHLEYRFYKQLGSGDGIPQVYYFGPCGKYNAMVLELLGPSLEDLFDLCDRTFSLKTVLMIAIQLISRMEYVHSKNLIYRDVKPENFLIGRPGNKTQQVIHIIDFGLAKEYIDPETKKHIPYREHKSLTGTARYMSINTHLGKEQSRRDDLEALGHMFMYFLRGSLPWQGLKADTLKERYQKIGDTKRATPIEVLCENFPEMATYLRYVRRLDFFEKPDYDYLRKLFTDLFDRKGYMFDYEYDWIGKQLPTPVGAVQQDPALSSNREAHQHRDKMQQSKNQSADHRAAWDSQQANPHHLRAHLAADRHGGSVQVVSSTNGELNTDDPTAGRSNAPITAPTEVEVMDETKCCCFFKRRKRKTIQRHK

Sequence	% activity (CK1γ3 (h)) [%]	% activity (JNK1α1 (h)) [%]	% activity (Lck (h)) [%]	% activity (PAK3 (h)) [%]	% activity (PKD2 (h)) [%]	% activity (CaMKI (h)) [%]	% activity (MLCK (h)) [%]	% activity (SGK (h)) [%]	% activity (JAK3 (h)) [%]	% activity (PAR-1Bα (h)) [%]	% activity (PKA (h)) [%]	% activity (Snk (h)) [%]	% activity (MAPK1 (h)) [%]	% activity (Tie2(R849W) (h)) [%]
FAKLAARLYRKALARQLGVAA [MMI-0300]	125	97	−2	140	33	1	2	48	–	–	–	–	–	–
HRRIKAWLKKIKALARQLGVAA (Mammalian) [MMI-0500]	–	–	359	–	10	−1	0	2	95	97	118	122	–	–
KAFAKLAARLYRKALARQLGVAA [MMI-0400]	–	98	–	–	25	0	1	54	122	–	–	131	100	108
YARAAARQARAKALNRQLGVA (Mammalian) [MMI-0200]	96	–	–	50	78	21	103	115	–	110	110	–	97	89
